The target in test [1] is human CD33 on cells (MOLM-13, Kasumi-1, OCI-AML-3, Kasumi-3) (human) (UniProt P20138). In words: flow cytometry on MOLM-13 cells, 4 °C, serial dilutions of the antibody. (A flow cytometer gives signals particle by particle.)
The target is the same in test [2]. In words: flow cytometry on Kasumi-1 cells, 4 °C, serial dilutions of the antibody.
Test [3] shares this target. In words: flow cytometry on OCI-AML-3 cells, 4 °C, serial dilutions of the antibody.
For test [4] the target is unchanged. Description: flow cytometry on MOLM-13 cells, 4 °C, detection with PE goat F(ab')2 anti-human IgG-Fc.

Chain of human CD33 on cells (MOLM-13, Kasumi-1, OCI-AML-3, Kasumi-3) (human) (P20138 18-364): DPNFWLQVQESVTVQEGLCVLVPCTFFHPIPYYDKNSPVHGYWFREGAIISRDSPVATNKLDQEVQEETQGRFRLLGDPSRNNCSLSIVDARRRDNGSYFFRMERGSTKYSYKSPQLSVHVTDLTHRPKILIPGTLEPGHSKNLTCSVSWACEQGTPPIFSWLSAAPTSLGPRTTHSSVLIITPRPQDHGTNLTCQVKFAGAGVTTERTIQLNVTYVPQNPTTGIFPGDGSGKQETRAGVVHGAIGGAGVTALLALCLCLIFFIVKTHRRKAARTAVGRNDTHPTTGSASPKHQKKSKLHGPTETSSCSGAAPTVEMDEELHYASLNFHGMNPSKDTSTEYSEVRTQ

B1: Lintuzumab (antibody, part only; not given: constant regions, V domains shown, not shown: another chain or arm of the molecule)
VH: QVQLVQSGAEVKKPGSSVKVSCKASGYTFTDYNMHWVRQAPGQGLEWIGYIYPYNGGTGYNQKFKSKATITADESTNTAYMELSSLRSEDTAVYYCARGRPAMDYWGQGTLVTVSS
VL: DIQMTQSPSSLSASVGDRVTITCRASESVDNYGISFMNWFQQKPGKAPKLLIYAASNQGSGVPSRFSGSGSGTDFTLTISSLQPDDFATYYCQQSKEVPWTFGQGTKVEIK
One may read the EC50 as the concentration at which the effect is half-maximal. Low readings indicate a more potent agent, high ones a less potent agent. As a reminder, the EC50 (read off the curve) is the concentration needed to bring the measured effect to its halfway point. Low values mean higher potency in that assay, high ones lower potency in that assay. Consider B1, for which the values for the EC50 in test [1], in test [2] and in test [3] were 0.31 nM, 0.34 nM and 0.9 nM, respectively. Also, in test [4], the EC50 (read off the curve) came to 0.04 µg/mL.

(Values after US20230365684A1.)
